The values that follow come from PMC9806585.

Substrate in this data set: NC(=O)CC[C@H](N)C(=O)O
Briefly: cells, lysate or membranes. To be noted: standard assay: 0.4 mM oxaloacetate, pyridoxal phosphate, 150 mM sodium borate pH 8.5, 37 °C, enzyme not fully purified.

B1: recombinant Arabidopsis GTK (Gln transaminase K) (Arabidopsis thaliana) (protein)
chain: MYLDINGVMIKQFSFKASLLPFSSNFRQSSAKIHRPIGATMTTVSTQNESTQKPVQVAKRLEKFKTTIFTQMSILAVKHGAINLGQGFPNFDGPDFVKEAAIQAIKDGKNQYARGYGIPQLNSAIAARFREDTGLVVDPEKEVTVTSGCTEAIAAAMLGLINPGDEVILFAPFYDSYEATLSMAGAKVKGITLRPPDFSIPLEELKAAVTNKTRAILMNTPHNPTGKMFTREELETIASLCIENDVLVFSDEVYDKLAFEMDHISIASLPGMYERTVTMNSLGKTFSLTGWKIGWAIAPPHLTWGVRQAHSYLTFATSTPAQWAAVAALKAPESYFKELKRDYNVKKETLVKGLKEVGFTVFPSSGTYFVVADHTPFGMENDVAFCEYLIEEVGVVAIPTSVFYLNPEEGKNLVRFAFCKDEETLRGAIERMKQKLKRKV
Regarding B1, the Km amounted to 300 µM.
